From US20140255414A1

Target: Aβ(pE11-30) peptide
Assay: direct ELISA, adsorbed Aβ(pE11-30), 1 µg/ml biotinylated antibody with SA-HRP

Sequence of Aβ(pE11-30) peptide (peptide, as listed by the source): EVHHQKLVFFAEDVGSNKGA

ELISA signal relative to clone 13: 5 times lower
Substance: biotinylated monoclonal mouse anti Aβ(17-24) antibody (clone 4G8, Covance)
